One data set deals with T1, Aminopeptidase N (APN) (Rattus norvegicus, UniProt P15684).
T1 sequence (P15684 33-965 limits assumed): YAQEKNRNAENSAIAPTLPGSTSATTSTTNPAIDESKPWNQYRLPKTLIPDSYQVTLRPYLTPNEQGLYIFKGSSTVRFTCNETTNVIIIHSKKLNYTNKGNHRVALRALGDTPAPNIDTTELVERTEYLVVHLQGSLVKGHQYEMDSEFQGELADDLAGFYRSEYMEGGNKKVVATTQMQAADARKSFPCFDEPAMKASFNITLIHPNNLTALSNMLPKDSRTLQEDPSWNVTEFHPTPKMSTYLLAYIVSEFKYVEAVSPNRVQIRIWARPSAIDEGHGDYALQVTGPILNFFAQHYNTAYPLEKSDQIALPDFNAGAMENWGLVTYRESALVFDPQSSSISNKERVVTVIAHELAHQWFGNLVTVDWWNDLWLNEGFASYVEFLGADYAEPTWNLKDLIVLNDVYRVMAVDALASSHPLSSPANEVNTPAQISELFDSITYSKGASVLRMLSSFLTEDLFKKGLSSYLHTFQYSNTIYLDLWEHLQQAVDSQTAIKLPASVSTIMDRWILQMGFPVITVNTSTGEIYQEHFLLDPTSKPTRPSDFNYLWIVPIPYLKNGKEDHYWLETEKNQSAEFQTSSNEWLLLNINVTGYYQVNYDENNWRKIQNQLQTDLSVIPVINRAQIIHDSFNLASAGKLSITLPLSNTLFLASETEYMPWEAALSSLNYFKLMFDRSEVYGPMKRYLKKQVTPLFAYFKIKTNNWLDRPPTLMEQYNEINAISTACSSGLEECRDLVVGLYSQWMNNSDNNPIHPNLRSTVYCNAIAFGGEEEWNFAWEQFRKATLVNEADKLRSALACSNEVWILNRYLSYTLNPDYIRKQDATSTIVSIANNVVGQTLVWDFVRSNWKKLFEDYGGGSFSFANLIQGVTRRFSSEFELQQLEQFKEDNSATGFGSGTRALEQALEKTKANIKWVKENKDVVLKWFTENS
The experiment in a line: Inhibition of APN aminopeptidase activity, increasing peptide concentrations. The format is biochemical.

In data set [1] the test system is APN from Aeromonas proteolytica. Conditions: ref [35]; cited from earlier work.
Another data set concerns the target T2, CPNGRC (disulfide 1-6 (inferred)).
T2 chain: CPNGRC
Kind of data set: enzyme inhibition assay.

The target of a further data set is T3, CNGRC (disulfide 1-5 (inferred)).
T3 chain: CNGRC
Kind of data set: enzyme inhibition assay.

Data set [2] deals with the molecule itself. Kind of data set: analytical ultracentrifugation.
The next data set has as its target T4, APN (Rattus norvegicus, UniProt P15684).
T4 sequence (P15684 33-965 limits assumed): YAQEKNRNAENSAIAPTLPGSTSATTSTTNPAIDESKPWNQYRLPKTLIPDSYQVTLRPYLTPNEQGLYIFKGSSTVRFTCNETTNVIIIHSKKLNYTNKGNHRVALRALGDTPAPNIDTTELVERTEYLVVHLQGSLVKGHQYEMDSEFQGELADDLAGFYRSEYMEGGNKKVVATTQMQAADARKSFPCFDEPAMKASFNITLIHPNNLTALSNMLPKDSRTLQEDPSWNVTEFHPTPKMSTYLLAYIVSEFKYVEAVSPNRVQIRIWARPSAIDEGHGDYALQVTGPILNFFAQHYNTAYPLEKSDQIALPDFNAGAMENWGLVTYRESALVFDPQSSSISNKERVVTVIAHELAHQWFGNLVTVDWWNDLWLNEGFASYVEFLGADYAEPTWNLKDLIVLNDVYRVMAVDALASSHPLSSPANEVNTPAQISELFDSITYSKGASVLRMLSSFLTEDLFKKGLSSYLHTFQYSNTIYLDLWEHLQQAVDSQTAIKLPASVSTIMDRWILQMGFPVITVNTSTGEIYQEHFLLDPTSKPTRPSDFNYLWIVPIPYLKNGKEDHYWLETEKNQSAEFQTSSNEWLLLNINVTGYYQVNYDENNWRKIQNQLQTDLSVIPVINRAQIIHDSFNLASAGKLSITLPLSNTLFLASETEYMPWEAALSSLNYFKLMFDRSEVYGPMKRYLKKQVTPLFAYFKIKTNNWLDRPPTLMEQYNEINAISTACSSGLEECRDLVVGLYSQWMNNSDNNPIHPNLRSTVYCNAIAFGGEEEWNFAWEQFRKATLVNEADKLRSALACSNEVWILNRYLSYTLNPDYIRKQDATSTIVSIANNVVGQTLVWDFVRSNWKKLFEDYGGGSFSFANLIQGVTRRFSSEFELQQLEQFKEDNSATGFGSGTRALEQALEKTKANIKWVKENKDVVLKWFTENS
The experiment in a line: Analytical ultracentrifugation, sedimentation equilibrium. The format is binding. The following applies: 3 nM enzyme.

We go through 4 molecules from PMC2890305 (Chemical biology & drug design, 2010).

Where a SMILES comes first, the peptide text is derived from it. Bridges are numbered along the chain shown (N, C = ends). Where no end group is shown, it is not given here.

For the molecule `N=C(N)NCCC[C@@H]1NC(=O)CNC(=O)[C@H](CC(N)=O)NC(=O)[C@@H]2CCCN2C(=O)[C@@H](N)CSSC[C@@H](C(=O)O)NC1=O` [CPNGRC] (H-CPNGRC-OH; disulfide 1-6), the 50% inhibitory concentration (IC50) against Aminopeptidase N (APN) came to 10 µM.
On to `CC(C)C[C@H](NC(=O)[C@@H](O)[C@H](N)Cc1ccccc1)C(=O)O` [bestatin], for which, in data set [1], the “affinity for APN from Aeromonas proteolytica” value was “slow binding nanomolar affinity”.

B1: Aminopeptidase N (APN/CD13) ECD (protein)
chain: YAQEKNRNAENSAIAPTLPGSTSATTSTTNPAIDESKPWNQYRLPKTLIPDSYQVTLRPYLTPNEQGLYIFKGSSTVRFTCNETTNVIIIHSKKLNYTNKGNHRVALRALGDTPAPNIDTTELVERTEYLVVHLQGSLVKGHQYEMDSEFQGELADDLAGFYRSEYMEGGNKKVVATTQMQAADARKSFPCFDEPAMKASFNITLIHPNNLTALSNMLPKDSRTLQEDPSWNVTEFHPTPKMSTYLLAYIVSEFKYVEAVSPNRVQIRIWARPSAIDEGHGDYALQVTGPILNFFAQHYNTAYPLEKSDQIALPDFNAGAMENWGLVTYRESALVFDPQSSSISNKERVVTVIAHELAHQWFGNLVTVDWWNDLWLNEGFASYVEFLGADYAEPTWNLKDLIVLNDVYRVMAVDALASSHPLSSPANEVNTPAQISELFDSITYSKGASVLRMLSSFLTEDLFKKGLSSYLHTFQYSNTIYLDLWEHLQQAVDSQTAIKLPASVSTIMDRWILQMGFPVITVNTSTGEIYQEHFLLDPTSKPTRPSDFNYLWIVPIPYLKNGKEDHYWLETEKNQSAEFQTSSNEWLLLNINVTGYYQVNYDENNWRKIQNQLQTDLSVIPVINRAQIIHDSFNLASAGKLSITLPLSNTLFLASETEYMPWEAALSSLNYFKLMFDRSEVYGPMKRYLKKQVTPLFAYFKIKTNNWLDRPPTLMEQYNEINAISTACSSGLEECRDLVVGLYSQWMNNSDNNPIHPNLRSTVYCNAIAFGGEEEWNFAWEQFRKATLVNEADKLRSALACSNEVWILNRYLSYTLNPDYIRKQDATSTIVSIANNVVGQTLVWDFVRSNWKKLFEDYGGGSFSFANLIQGVTRRFSSEFELQQLEQFKEDNSATGFGSGTRALEQALEKTKANIKWVKENKDVVLKWFTENS
For B1, the IC50 with CPNGRC is around 10 µM; with CNGRC, around 300 µM. The Kd in data set [2] was 1.6 µM.

B2: APN: Aminopeptidase N isolated from rat renal brush-border membranes, treated with papain to solubilize the extracellular domains (protein, UniProt P15684 33-965, looked up)
extracellular domain: YAQEKNRNAENSAIAPTLPGSTSATTSTTNPAIDESKPWNQYRLPKTLIPDSYQVTLRPYLTPNEQGLYIFKGSSTVRFTCNETTNVIIIHSKKLNYTNKGNHRVALRALGDTPAPNIDTTELVERTEYLVVHLQGSLVKGHQYEMDSEFQGELADDLAGFYRSEYMEGGNKKVVATTQMQAADARKSFPCFDEPAMKASFNITLIHPNNLTALSNMLPKDSRTLQEDPSWNVTEFHPTPKMSTYLLAYIVSEFKYVEAVSPNRVQIRIWARPSAIDEGHGDYALQVTGPILNFFAQHYNTAYPLEKSDQIALPDFNAGAMENWGLVTYRESALVFDPQSSSISNKERVVTVIAHELAHQWFGNLVTVDWWNDLWLNEGFASYVEFLGADYAEPTWNLKDLIVLNDVYRVMAVDALASSHPLSSPANEVNTPAQISELFDSITYSKGASVLRMLSSFLTEDLFKKGLSSYLHTFQYSNTIYLDLWEHLQQAVDSQTAIKLPASVSTIMDRWILQMGFPVITVNTSTGEIYQEHFLLDPTSKPTRPSDFNYLWIVPIPYLKNGKEDHYWLETEKNQSAEFQTSSNEWLLLNINVTGYYQVNYDENNWRKIQNQLQTDLSVIPVINRAQIIHDSFNLASAGKLSITLPLSNTLFLASETEYMPWEAALSSLNYFKLMFDRSEVYGPMKRYLKKQVTPLFAYFKIKTNNWLDRPPTLMEQYNEINAISTACSSGLEECRDLVVGLYSQWMNNSDNNPIHPNLRSTVYCNAIAFGGEEEWNFAWEQFRKATLVNEADKLRSALACSNEVWILNRYLSYTLNPDYIRKQDATSTIVSIANNVVGQTLVWDFVRSNWKKLFEDYGGGSFSFANLIQGVTRRFSSEFELQQLEQFKEDNSATGFGSGTRALEQALEKTKANIKWVKENKDVVLKWFTENS
modifications: extracellular domain papain-solubilized
As to B2, the “APN in the dimeric state at assay concentration” value with APN is recorded as “less than 0.4%”.

The IC50 is the concentration that inhibits the measured activity by half. The low end stands for greater potency in that assay, the high end for weaker potency in that assay. As usually defined, the Kd is the constant that tells how readily two partners part at equilibrium. A high value points to lower affinity.
